Assay results as given in the nanobody polyreactivity screen of Harvey et al. (2022).

Experiment: yeast display, Sf9 membrane polyspecificity reagent, FACS + sequencing; frameworks hold sequencing errors
Summary of the method: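 Galactose induction of a Saccharomyces cerevisiae BJ5465 synthetic nanobody display library ran 36–48 hours. The cells were then stained for 1 hour at 4 °C with 10% biotinylated, detergent-solubilized Sf9 membrane reagent, pulled down on streptavidin microbeads and FACS-sorted into low and high (top ~1%) gates on expression and reagent-binding fluorescence. Labels for polyreactivity follow the gate of origin.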

Sequence	polyreactivity (PSR sort gate)
QVQLVESGGGIVQAGGSLRLSCAASGRIFYYNAMGWYRQAPGKERELVAAISTRGTSTYYAESVKGRFTISRDNAKNTVYLQMNSLKPEDTAVYYCNRASGNWQSYLSYDYWGQGTQVTVSS	low polyreactivity
QVQLVESGGGLVQAGGSLRLSCAASGSTFGEYAMGWYRQAPGKERELVAVITSDDNTYYADSVKGRFTISRDNAKNTVYLQMNSLKPEDTAVYYCAARGYVLARSQQWRREYYWGQGTQVTVSS	high polyreactivity
QVQLVESGGGLVQAGGSLRLSCAASARIFSPYAMGWYRQAPGKERELVAAITSASSTYYADSVKGRFTISRDNAKNTLYLQMNSLKPEDTAVYYCAASYWRYGSAFDYWGQGTQVTVSS	high polyreactivity
QVQLVESGGGLVQAGGSLRLSCAASGNTFTKYAMGWYIQAPGKERELVAGITRGGSTNYADSVKGRFTISRDNAKNTVYLQMNSLKPEDTAVYYCNARPVYGSRFYSAVRMEYWGQGTPVTVSS	low polyreactivity
QVQLVESGGGLVQAGGSLRLSCAASGIIFQYYAMGWYRQAPGKERELVAAISWSGGSTYYADSVKGRFTISRDNAKNTVYLQMNSLKPEDTAVYYCAARSRSYWPYEGDYWGQGTQVTVSS	low polyreactivity
QVQLVESGGGLVQAGGSLRLSCAASGRTFPPYAMGWYRQAPGKERELVAAISRRAGTTYYADSVKGRFTISRDNAKNTVYLQMNSLKPEDTAVYYCAALTESSSYGYWGQGTQVTVSS	low polyreactivity
QVQLVESGGGLVQAGGSLRFSCAASGSTFTTNVMGWYRQAPGKERELVAAISWSSGSTYYADSVKGRFTISRDNAKNTVYLQMNSLKPEDTAVYYCAARLVIFYPYSRYYYWGQGTQVTVSS	high polyreactivity
QVQLVESGGGLVQAGGSLRLSCDASGSIVRYNAMGWYRQAPGKERELVADISTSGGSTYYADSVKGRFTISRDNANNTVYVQMNSLKPEDTAVYYCAKPWYSSGFDYWGQGTQVTVSS	high polyreactivity
QVQLVESGGGLVQAGGSLRLSCAASGRTFNGNTMGWYRQAPGKERELVAAISRRGGSTYYADSVKGRFTISRDTAKNTVYLQMNSLKPEVTAVYYCATHSTFGYDYWGQGTQVTVSS	high polyreactivity
QVQLVESGGGLVQAGGSLSLSCAASGFIFHYYAMAGYRQAPGKERELVAAISKTVGSTYYADSVKGRFTISRDNAKNTVYLQMNSRKPEDTAVYYCAVGYSRRNTPYDYWGQGTQVTVSS	high polyreactivity
QVQLVESGGGLVQAGGSLRFSCAASGRIFRYYAMGWYRQAPGKERELVAGIRTSGGRTYADSVKGRFTISRDNAKNTVYLQMNSLKPEDTAVYYCAAGRRTLSMYYWGQGTQVTVSS	high polyreactivity
QVQLVESGGGLVQAGGSLRLSCAASGRILKRYAMGWYRQAPGKERELVAAINWSGGSTYYADSVKGRFTISRDNAKNTVYLQMTSLKPEDTAVYYCAADSWPFGYYYWGQGTQVTVSS	high polyreactivity
QVQLVESGGGLVQAGGSLRLSCAASGRTFKYNAMGWYRQAPGKERELVAAISSTGSTNYADSVKGRFTISRDNAKNTVYLQMNSLKPEDTAVYYCAASYFFVQWGWYYYWGQGTQVTVSS	low polyreactivity
QVQLVESGGGLVQAGGSLRLSCAASGRIFYYYAMGWYRQAPGKERELVADITWSGGSTYYADSVKGRFTISRDNAKNTVYLLRNSLKPEDTAVYYCNAVSFNYLLEYDYWGQGTQVTVSS	high polyreactivity
QVQLVESGGGLVQAGGSLRLSCAASGSTVGYYDMGWYRQAPGKERELVATITKSGGTTRYADSVKGRFTISRDNAKNTVYLQMNSLKPEDTAVYYCAADGTWRLLDDYWGQGTQVTVSS	low polyreactivity
QVQLVESGGGLVQAGGSLRLSCAASGSIFTPYAMGWYRQAPGKERELVAAITYSGGSTYYADSVKGRFTISRDNAKNTVYLLMNSLKPEDTAVYYCAAYFNIYGLEYDYWGQGTQVTVSS	high polyreactivity
QVQLVESGGGLFQEGGSLRLSCAASGSIFEPYVMGWYRQAPGKESELVAAIRQTGGSTYYADSVKGRFTISRDNAKNTVYLQMNSLKPEDTAVYYCNAEQNPSGLYDYRGVEGEMGYWGQGTQVTVSS	low polyreactivity
QVQLVESGGGLVQAGGSLRLSCAASGFIFGYYAMGWYIPAPGKERELVAAISGSGGSTYYADSVKGRFTISRDNAKNTVYLQMNSLKPEDTAVYYCAAYGRAPGTSQRYDYRGQGTQVTVSS	high polyreactivity
QVQLVESGGGLVQAGGSLRLSCAASGRTFPTNMGWYRQAPGKERELVATITGGGGSTIYADSVKGRFTISRDNAKNTVYLQMNSLKPEDTAVYYCAKTLSPEGVPYDYWGQGTQVTVSS	low polyreactivity
QVQLVESGGGLVQAGGSLRLSCAASGSTFGYYAMGWYRQAPGKERELVAAITSSGGSTYYSDSVKGRFTISRDNAKNTVYLQMYSMNPEDTAVYDCNTRWCFYIDPFYYEYDYWGQGSQVTVSS	low polyreactivity
QVQLVESGGGLVQAGGSLRLSCAASGRTFYTNTMGWYRPAPGKERELVAAISYSGSSTYYADSVKGRFTISRDNAKNTVYLQMNSLKPEDTAVYYCNAVRYYRYYYWGQGTQVTVSS	low polyreactivity

Sequence	polyreactivity (PSR sort gate)
QVQLVESGGGLVQAGGSLRLSCAASGFIFYYYAMGWYIQAPGKERELVAAIDWDGDRTYYADSVKGRFTISRDNAKNTVYLQMNSLKPEDTAVYYCAAEWPVNFDYWGQGTQVTVSS	low polyreactivity
QVQLVESGGGLVQAGGSLRLSCAASGRILGKYAMGWYRQAPGKERELVAAIRLRGGSTYYADSVKGRFTISRDNAKNTVYLQMNSLKPEDTAVYYCAARYWDRSQAYTYWGQGTQVTVSS	high polyreactivity
QVQLVESGGGLVQAGGSLRLSCAATGIIFSWYDMGWYRQAPGKERELVAAITSGGSTYYADSVKGRFTISRDNAKNTVYLLMNSLKPEDTAVYYCNRYSYLFPYYWKYDYCGQGTQVTVSS	high polyreactivity
QVHLVESGGGLVQAGGSLRLSCAASGSIFHRYAMGWYRQAPGKEREFVAAISRSGGSSNYADSVKGRFTISRDNAKNTVYLQMNSLKPEDTAVYYCAARTVTTGGSRYDYWAQGTQVTVSS	high polyreactivity
QVQLVESGGGLVQAGGSLRLSCAASGSIFVWNAMGWYIQAPRKERELVAAISYTDGSTYYADSVKGRFTISRDNAKNTVYLQMNSMNPEDTAVYYCAASTLKDIYLWFRVDYWGQCTQVTVSS	low polyreactivity
QVQLVESGGGLVQAGGSLRLSCAASGNTFANYAMGWYRQAPGKERELVAAITSNGGSTYYADSVKGRFTISRDNAKNTVYLQMNSLKPEDTAVYYCAAPGAISTRSRYGPGYTYDYWGQVTQVTVSS	low polyreactivity
QVQIVESGGGLVQAGCSLRLSCAASGNIFRGYTMGWYRQAPGKEWELVATITWNGVSTFYADSVKGRFTISRDNAKNTGYLQMNSLKPEDTAVYYCAAYYPSHDYSGFGSDTYEYWGQGTQVTVSS	low polyreactivity
QVQLVESGGGLVQAGGSLRLSCAASGRIYRDYAMGWYRQAPGKERELVATITWSGATTYYADSVKGRFTISRDNAKNTVYLQMNSLKPEDTAVYYCAKVYPRFYTFGEYNYWGQGTQVTVSS	low polyreactivity
QVQLVESGGGLVQAGGSLRLSCAPSGRTFIFYAMGWSRQAPGKERELVAAISSSGSGTYYADSVKGRFTISRDNAKNTVYLQMNSLIPEDTAVYYCAADVVNSRRRPKYGYWGQGSQVTVSS	low polyreactivity
QVQLVESGGGLVQAGGSLRLSCAASGRIFQRYMGWYRQAPGKERELVAAISRRGGSTYYADSVKARFTISRDNAKNTVYLQMNSLKPEDTAVYYWNAVNVLAPSRGRRYDYWGQGTQVTVSS	high polyreactivity
QVQLVESGGGLVQAGGSLRLSCAASGSIVPVYAMGWYRQAPGKEREFVAGINTIGGSTYYADSVKGRFTISRDNAKNTVYLQMNSLKPEDTAVYYCAATQYWNMYSWGQGTQVTVSS	low polyreactivity
EVQLVETGGGLVQAGGSLRLSCAPSGFNFGVYAMGCYRQEPGKERELFAAISTTVGSTYYADSVKWRFTISRDNEKNTVYLQMTSLKPEDTAVYYCATGWSNCGQGTQVTVSS	low polyreactivity
QLQLVESGGGLVQAGGSLRLSCAASGITLYRYVMGWYRQAPGKERELVADISGRGTSTYYADSVKGRFTISRDNAKNTVYLQMNSLKPEDTSVYYCNAEYTKTGALVIPYTYYYAADYWGQGTQVTVSS	low polyreactivity
QVQLVESGGGLVQAGGSLRLSCAASGSTLNLYAMGWFRQAPGKEMELVAAIRSHGVSTYYADSVKGRFTISRDNAKNTVYLQMNRLKPEYTAFYYCAGVYIPGGRYTYFPYKRYDYWGQGTQVTVSS	high polyreactivity
QVQLLESGGGLVQAGGSLRLSCAASGRIFQFYAMGWYRKAPGKERELVAANSVRGGSTYYAHSVKGRFTISRDNEKNTVYLQMNSLKPEDTAVYYCAASKWGGYYYWGQGTQVTVSS	high polyreactivity
QVQLVESGGGLVQAGGSLRLSCAASGLTFFKYTMGWYIQAPGKERELVAAINGGGSTNYADSVKGRFTISRDNAKNTVYLQMNSLKPEDTAVYYCAAGLPYGYDYWGQGTQVTVSS	low polyreactivity
QVQLVESGGCLVQAGGSLRLSCAASGLTIFVNAMGWYRQAPGKERELVATISGGGSTYYADSVKGRFTISRDNAKNTVYLQMNSLKPEDTAVYYCNGGGYGLRGDYWGQGTQVTVSS	low polyreactivity
QVQLVESGGGLVQAGGSLRLSCAASGSTFSYYGMGSYRTAPGKERELVDAIDYSGDSTYDADSVKGRFTISRDNAKNTVYLQMNSLKPEDTAVYYCAADDYPWNRYAYWGQGTQVPVSS	low polyreactivity
QVQLVESGGGLVQAGGSLRISCAASGSTFRLYAMGWYRQAPGKERELVAAISSNGVRTYYADSVKGRFTISRDNAKNTVYLQMNSLKPEDTAVYYCAARVYPAYPRGYDYWGQGTQVTVSS	high polyreactivity
QVQLVESGGGLVQAGGSLRLSCAASGSTSVPYTMGWYRQAPGKERELVAAISSSGGTTNYAVSVKGRFTISRDNAKNTVSLQMNSLKPEDTAVYYCAAEYYQWVAYSWNEMYYWGQGTQVTVSS	low polyreactivity
